Target: T1, human BMP-2 ligand (carrier-free, R & D Systems), used 125I-labeled and as cold competitor (human, UniProt P12643 283-396, iodinated with [125I] by the modified chloramine-T method (labeled form))
T1 construct: Bought recombinant ligand
Assay: DSS chemical crosslinking with 125I-BMP-2, Protein A pull-down, SDS-PAGE, autoradiography
Experimental: Ligand iodination and crosslinking. […] This mixture was incubated in the absence or presence of […] disuccinimidyl suberate (DSS, Sigma, St. Louis, Mo.) followed by incubated with Protein A Sepharose beads (Amersham) as previously described (J. L. Babitt et al., J. Biol. Chem., 2005, 280: 29820-29827). Beads were washed with phosphate buffered saline (PBS) and protein eluted by non-reducing Laemmli sample buffer (Bio-Rad). Eluted protein was separated by SDS-PAGE and analyzed by autoradiography.

T1 sequence (P12643 283-396 limits assumed): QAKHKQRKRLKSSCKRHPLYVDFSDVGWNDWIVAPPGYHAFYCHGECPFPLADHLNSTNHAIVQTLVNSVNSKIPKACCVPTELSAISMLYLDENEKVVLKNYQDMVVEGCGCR

binding result: no binding (tested: 60 ng ALK5.Fc)
B1: ALK5.Fc (a TGF-β type I receptor, R & D Systems) (Fc fusion, UniProt P36897 34-125, looked up)
chain: LQCFCHLCTKDNFTCVTDGLCFVSVTETTDKVIHNSMCIAEIDLIPRDRPFVCAPSSKTGSVTTTYCCNQDHCNKIELPTTVKSSPGLGPVE
notes: Bought fusion protein, negative control; not shown: Fc part of the bought fusion protein; not described
